Reference: patent US20220090209

What was measured:
[1] = target: HIF2α-HIF1β heterodimer (UniProt P97481+P53762); assay: MST; conditions: 5mC at CpG of RCGTG; 20 mM phosphate, 75 mM NaCl, 5 mM DTT, 0.05% Tween-20, pH 7.4, 25 C; scale: fold lower affinity
[2] = target: HIF1α-HIF1β heterodimer (UniProt Q61221+P53762); assay: MST; conditions: 5mC at CpG of RCGTG; 20 mM phosphate, 75 mM NaCl, 5 mM DTT, 0.05% Tween-20, pH 7.4, 25 C; scale: fold lower affinity
[3] = target: HIF1β (ARNT), endogenous (Mus musculus) (UniProt P53762); conditions: 5mC at CpG (M.SssI); ChIP-qPCR in isogenic mouse ES cells

| Substance | binding signal [1] | binding signal [2] | binding signal (fold reduction vs unmethylated) [3] |
| --- | --- | --- | --- |
| methylated RCGTG ds oligonucleotide | 15 | 15 |  |
| in vitro methylated human HIF binding region chr16:30,065,212-30,065,711 |  |  | 12.4 |
